Laboratory results from CN113563464A (NAT CENTER FOR AIDS/STD CONTROL AND PREVENTION CHINA CDC, dated 2021).

B1: SW-C11 (antibody, V domains shown)
VH: EVQLVESGGGLIQPGGSLRLSCAASEFIVSRNYMSWVRQAPGTGLEWVSVIYPGGSTFYADSVKGRFTISRDNSKNTLYLQMDSLRVEDTAVYYCARDYGDFYFDYWGQGTLVTVSS
VL: EIVMTQSPVSLSVSPGERATLSCRASQGVASNLAWYQQKAGQAPRLLIYGASTRATGIPARFSGSGSGTEFTLTISTLQSEDSAVYYCQQYNDRPRTFGQGTKLEIKR
B2: WJQ-C11 (antibody, V domains shown)
VH: EVQLVESGGGLVQPGGSLRLSCAASGFAFSTYEMNWVRQAPGKGLEWVSYIHNSGNPVYYADSVKGRFTISRDNAENSLYLQMNSLRAEDTAIYYCARALRYSTSWYDYWGQGTLVTVSS
VL: EIVLTQSPVSLSLSPGERATLSCRASQSVSSYLAWYQQKPGQAPRLFIYDASKRATGIPARFSGSGSGTDFTLTISSLEPEDFAVYYCQQRSNWPRTFGQGTKVEIKR
B3: WJQ-G10 (antibody, V domains shown)
VH: EVQLVESGGGLVQPGESLRLSCAASGLTVSSNYMSWVRQAPGKGLEWVSVIYAGGSTFYADSVKGRFTISRDNSKNTLYLQMNSLRAEDMAIYYCARDLSYYGMDVWGQGTTVTVSS
VL: DIQLTQFPFSLSASVGDRVTITCRASQGISTYLAWYQQKPGRAPKLLIYAASTLQSGVPSRFSGSGSGTEFTLTISSLQPEDFATYYCQLLNSYPVHFGQGTKLEIKR

Molecular target: SARS-Cov-2的生物素化RBD (RBD蛋白, NC_045512, 6×His-Avi标签) (SARS-CoV-2, UniProt P0DTC2 319-541)

Row | Binder | Kd [nM]
1 | B1 | < 0.001
2 | B2 | 5.29
3 | B3 | 1.37
